Data on one molecule can be found in article PMC10532153, “Interactions of the N- and C-Terminal SH3 Domains of Drosophila Drk with the Proline-Rich Peptides from Sos and Dos” (International Journal of Molecular Sciences, 2023).

Assay [1] addresses T1, C-terminal SH3 domain of Drosophila Drk (Drk-CSH3) (Drosophila, UniProt Q08012 153-211).
T1 construct: Downstream receptor kinase (Drk), Drosophila homologue of GRB2, 211 residues; C-terminal SH3 domain; the solution structure PDB 7Y4N is of this domain
The assay can be described thus: NMR titration; 2D 1H-15N HSQC of 15N-labelled Drk-CSH3 (0.3 mM), peptide added stepwise up to protein:peptide 1:8; NMR buffer (20 mM KH2PO4/K2HPO4 pH 7.4, 100 mM KCl, 1 mM DTT, 0.05% NaN3); 25 °C; CSPs fitted to a single-binding model, bootstrap 1000 iterations. As to conditions: both partners purified.

For assay [2], the target named is T2, N-terminal SH3 domain of Drosophila Drk (Drk-NSH3) (Drosophila, UniProt Q08012 1-59).
T2 construct: Downstream receptor kinase (Drk), Drosophila homologue of GRB2, 211 residues; N-terminal SH3 domain, residues 1-59; Isolated domain is in equilibrium between a folded and an unfolded state; source: E. coli BL21 (DE3) star, pET-3a, uniformly 15N-labelled, purified (DEAE sepharose, Superdex 75, Resource Q)
T2 sequence (Q08012 1-59): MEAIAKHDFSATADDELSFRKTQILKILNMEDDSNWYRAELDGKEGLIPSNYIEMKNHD
As to the kind of experiment: NMR titration; 2D 1H-15N HSQC of 15N-labelled Drk-NSH3 (0.3 mM), peptide added stepwise up to protein:peptide 1:8; 20 mM KH2PO4/K2HPO4 pH 7.4, 100 mM KCl, 1 mM DTT, 0.05% NaN3, 10% D2O; 25 °C; CSPs fitted to a conformational selection model (Kd and Kf), bootstrap 1000 iterations. As to conditions: both partners purified.

T1 sequence (Q08012 153-211): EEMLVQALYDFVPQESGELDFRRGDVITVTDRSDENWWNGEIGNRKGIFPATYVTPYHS

B1: Dos-S2 peptide (Daughter of Sevenless residues 690-702) (peptide)
peptide: GPPSVDRKCKPNA
notes: Daughter of Sevenless (Dos), Drosophila, proline-rich motif PxxxRxxKP in the C-terminal unstructured region, residues 690-702; Thirteen residues; the nine-residue peptide of the earlier study extended by two residues at each end; also called "longer" Dos-S2; source: synthetic peptide, bought: Eurofins Genomics
On to B1, for which the Kd is 250 ± 21.5 µM in assay [1] and 242 ± 11.6 µM in assay [2].
